Experimental data: patent US20100172907A1 (Hoffmann-La Roche, published 2010)
Groups on a side chain read outwards from the residue. No end group written: not given here. NSMP = not defined here

T1: BSA-conjugated Aβ heptapeptide VFFAEDC (C-terminal Cys coupled to NSMP-activated BSA)
T1 construct: also called Peptide 18-23
T1 peptide: VFFAEDC

T2: BSA-conjugated Aβ heptapeptide AEFRHDC (C-terminal Cys coupled to NSMP-activated BSA)
T2 construct: also called Peptide 2-7
T2 peptide: AEFRHDC

T3: BSA-conjugated Aβ heptapeptide FFAEDVC (C-terminal Cys coupled to NSMP-activated BSA)
T3 construct: also called Peptide 19-24
T3 peptide: FFAEDVC

T4: BSA-conjugated Aβ heptapeptide LVFFAEC (reading uncertain; also: BSA conjugate)
T4 construct: also called Peptide 17-22
T4 peptide: LVFFAEC([NSMP-BSA])


Assays:
human Aβ (1-40) peptide [1] = molecular target: T5, human Aβ (1-40) peptide (human); assay: SPR, immobilized fibers;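 further: biacore SPR using in vitro grown Aβ1-40 or Aβ1-42 fibrils immobilized on the chip with Fab analytes, KD from koff/kon fits or equilibrium isotherms based on total Fab concentration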
T5 construct: also called Aβ1-40 fibers
Description: (§1) Biacore2000 and Biacore3000 instruments were used for these measurements. Aβ1-40 and Aβ1-42 fibers were generated in vitro by incubation of synthetic peptides at a concentration of 200 μg/ml in 10 mM Na-acetate buffer (pH 4.0) for three days at 37° C. […] For binders with slow kinetics KD values were calculated by curve fitting of the time-dependent sensor responses, i.e. from the ratio of koff/kₒₙ. Binders with fast kinetics were analyzed by fitting the concentration-dependent sensor responses at equilibrium (adsorption-isotherms). KD values were calculated from the Biacore sensograms based on the total Fab concentration as determined by a protein assay. […] Briefly, time-dependent protein binding to Aβ1-40 fibers immobilized on the Biacore chip was measured during the association phase under mass-limited conditions at different flow rates of the analyte solution.

Aβ (1-42) peptide [2] = molecular target: T6, Aβ (1-42) peptide (human); assay: SPR, immobilized fibers;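 further: biacore SPR using in vitro grown Aβ1-40 or Aβ1-42 fibrils immobilized on the chip with Fab analytes, KD from koff/kon fits or equilibrium isotherms based on total Fab concentration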
T6 construct: also called Aβ1-42 fibers; Aβ4
Description: as §1

[3] = molecular target: T1, BSA-conjugated Aβ heptapeptide VFFAEDC; assay: ELISA
Description: (§2) 50 μl of NSMP activated BSA (6.7 mg/ml) was diluted with 50 μl of PBS, 0.1% sodium azide and 10 μl of peptide solution (1 mM in DMSO) was added. As negative control activated BSA was mock-treated without peptide addition. After 4 hrs at room temperature the reaction was stopped by addition of 10 μl of 10 mM Cystein. An aliquot of the conjugate reaction mixture was diluted 1:100 with 0.1M sodium bicarbonate buffer and immediately filled into the wells (100 μl) of ELISA plates (Nunc Immuno-Plate). After standing 16 hrs at 4° C. 100 μl blocking buffer (as above) was added to each well and incubated for another 30 minutes. The plates were washed with 2×300 μl/well TBST (as above) and filled with 100 μl antibody at 10 μg/ml or 2 μg/ml in blocking buffer. The plates were kept 16 hours at 4° C. and washed with 2×300 μl TBST. 100 μl/well HRP-conjugated anti-human Ig H+L (Pierce, dilution 1:1000 with blocking buffer) was added and incubated for 1 hour at ambient temperature. The plates were washed with 3×300 μl/well TBST. Colour development was started by addition of 100 μl tetra-methyl benzidine/hydrogen peroxide reagent.

[4] = molecular target: T2, BSA-conjugated Aβ heptapeptide AEFRHDC; assay: ELISA
Description: as §2

[5] = molecular target: T3, BSA-conjugated Aβ heptapeptide FFAEDVC; assay: ELISA
Description: as §2

[6] = molecular target: T4, BSA-conjugated Aβ heptapeptide LVFFAEC; assay: ELISA
Description: as §2

human Aβ (1-40) peptide [7] = molecular target: T5, human Aβ (1-40) peptide; assay: SPR, kinetic fit, immobilized fibers;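 further: surface plasmon resonance on a Biacore chip bearing in vitro formed Aβ1-40 or Aβ1-42 fibers, KD taken as koff/kon by fitting time-resolved sensor responses, based on total Fab concentration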
Description: as §1

Aβ (1-42) peptide [8] = molecular target: T6, Aβ (1-42) peptide; assay: SPR, kinetic fit, immobilized fibers;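 further: surface plasmon resonance on a Biacore chip bearing in vitro formed Aβ1-40 or Aβ1-42 fibers, KD taken as koff/kon by fitting time-resolved sensor responses, based on total Fab concentration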
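Wherever OD ratio 18-23/BSA is given: ELISA of antibody at 10 or 2 µg/ml binding plate-coated BSA–peptide conjugates, detected with HRP anti-human Ig and TMB colour, mock-treated BSA without peptide as negative control.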
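Wherever OD ratio 19-24/BSA is given: ELISA of antibody at 10 or 2 µg/ml binding plate-coated BSA–peptide conjugates, detected with HRP anti-human Ig and TMB colour, mock-treated BSA without peptide as negative control.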
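Wherever OD ratio 2-7/BSA is given: ELISA of antibody at 10 or 2 µg/ml binding plate-coated BSA–peptide conjugates, detected with HRP anti-human Ig and TMB colour, mock-treated BSA without peptide as negative control.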
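Wherever Peptide-ratio 18-23/2-7 is given: ELISA of antibody at 10 or 2 µg/ml binding plate-coated BSA–peptide conjugates, detected with HRP anti-human Ig and TMB colour, mock-treated BSA without peptide as negative control.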
Description: as §1

| Binder | Kd (human Aβ (1-40) peptide [1]) | Kd (Aβ (1-42) peptide [2]) | OD ratio 18-23/BSA [3] | Peptide-ratio 18-23/2-7 [3] | OD ratio 2-7/BSA [4] | OD ratio 19-24/BSA [5] | Peptide-ratio 19-24/2-7 [5] | OD ratio 17-22/BSA [6] | Peptide-ratio 17-22/2-7 [6] | Kd (human Aβ (1-40) peptide [7]) | Kd (Aβ (1-42) peptide [8]) |
| --- | --- | --- | --- | --- | --- | --- | --- | --- | --- | --- | --- |
| MS-Roche #8.1.H1 Fab (Fab, V domains shown) VH: QVQLVESGGGLVQPGGSLRLSCAASGFTFSSYAMSWVRQAPGKGLEWVSAISRSGSNIYYADSVKGRFTISRDNSKNTLYLQMNSLRAEDTAVYYCARLLSRGYNGYYHKFDVWGQGTLVTVSS VL: not shown | 13.6 nM | 9.2 nM | 25 | 0.88 | 29 | 25 | 0.86 | 22 | 0.77 | – | – |
| MS-Roche #8.2.L1 Fab (Fab, V domains shown) VH: not shown VL: DIVLTQSPATLSLSPGERATLSCRASQRVSGRYLAWYQQKPGQAPRLLIYGASSRATGVPARFSGSGSGTDFTLTISSLEPEDFATYYCQQLSSYPPTFGQGTKVEIKR | 4.8 nM | 3.7 nM | 32 | 1.26 | 26 | 31 | 1.22 | 15 | 0.6 | – | – |
| MS-Roche #7.12 Fab (Fab, V domains shown) VH: QVQLVESGGGLVQPGGSLRLSCAASGFTFSSYGMSWVRQAPGKGLEWVSNISGSGSSTYYADSVKGRFTISRDNSKNTLYLQMNSLRAEDTAVYYCARGKGNTHKPYGYVRYFDVWGQGTLVTVSS VL: DIVLTQSPATLSLSPGERATLSCRASQYVSSPYLAWYQQKPGQAPRLLISGSSNRATGVPARFSGSGSGTDFTLTISSLEPEDFAVYYCLQLYNIPNTFGQGTKVEIKR | 28 nM | 60 nM | 8 | 0.21 | 38 | 7 | 0.18 | 6 | 0.16 | – | – |
| MS-Roche #3.4H7×3.4L9 Fab (Fab, V domains shown, cross-cloned Fab) VH: QLVESGGGLVQPGGSLRLSCAASGFTFSSYAMSWVRQAPGKGLEWVSVISETGKNIYYADSVKGRFTISRDNSKNTLYLQMNSLRAEDTAVYYCARLTHYARYYRYFDVWGQGTLVTVSS VL: DIVLTQSPATLSLSPGERATLSCRASRRIHVYYLAWYQQKPGQAPRLLIYGASSRATGVPARFSGSGSGTDFTLTISSLEPEDFATYYCQQTYDYPPTFGQGTKVEIKR | – | – | – | – | – | – | – | – | – | 2.66 nM | 3.51 nM |
| MS-Roche #3.4H3×3.4L7 Fab (Fab, V domains shown, cross-cloned Fab) VH: QLVESGGGLVQPGGSLRLSCAASGFTFSSYAMSWVRQAPGKGLEWVSVISQTGRKIYYADSVKGRFTISRDNSKNTLYLQMNSLRAEDTAVYYCARLTHYARYYRYFDVWGQGTLVTVSS VL: DIVLTQSPATLSLSPGERATLSCRASQRLGRLYLAWYQQKPGQAPRLLIYGASSRATGVPARFSGSGSGTDFTLTISSLEPEDFATYYCQQTYDYPPTFGQGTKVEIKR | – | – | – | – | – | – | – | – | – | 0.92 nM | 0.92 nM |
| MS-Roche #3.4H1×3.4L9 Fab (Fab, V domains shown, cross-cloned Fab) VH: QLVESGGGLVQPGGSLRLSCAASGFTFSSYAMSWVRQAPGKGLEWVSAISETSIRKYYADSVKGRFTISRDNSKNTLYLQMNSLRAEDTAVYYCARLTHYARYYRYFDVWGQGTLVTVSS VL: DIVLTQSPATLSLSPGERATLSCRASRRIHVYYLAWYQQKPGQAPRLLIYGASSRATGVPARFSGSGSGTDFTLTISSLEPEDFATYYCQQTYDYPPTFGQGTKVEIKR | – | – | – | – | – | – | – | – | – | 0.25 nM | 0.5 nM |
| MS-Roche #3.3H1×3.4L9 Fab (Fab, V domains shown, cross-cloned Fab) VH: QLVESGGGLVQPGGSLRLSCAASGFTFSSYAMSWVRQAPGKGLEWVSVISEKSRFIYYADSVKGRFTISRDNSKNTLYLQMNSLRAEDTAVYYCARLTHYARYYRYFDVWGQGTLVTVSS VL: DIVLTQSPATLSLSPGERATLSCRASRRIHVYYLAWYQQKPGQAPRLLIYGASSRATGVPARFSGSGSGTDFTLTISSLEPEDFATYYCQQTYDYPPTFGQGTKVEIKR | – | – | – | – | – | – | – | – | – | 2.16 nM | 2.97 nM |
| MS-Roche #3.4H3×3.4L9 Fab (Fab, V domains shown, cross-cloned Fab) VH: QLVESGGGLVQPGGSLRLSCAASGFTFSSYAMSWVRQAPGKGLEWVSVISQTGRKIYYADSVKGRFTISRDNSKNTLYLQMNSLRAEDTAVYYCARLTHYARYYRYFDVWGQGTLVTVSS VL: DIVLTQSPATLSLSPGERATLSCRASRRIHVYYLAWYQQKPGQAPRLLIYGASSRATGVPARFSGSGSGTDFTLTISSLEPEDFATYYCQQTYDYPPTFGQGTKVEIKR | – | – | – | – | – | – | – | – | – | 1.05 nM | 0.93 nM |
| MS-Roche #3.4H7×3.4L7 Fab (Fab, V domains shown, cross-cloned Fab) VH: QLVESGGGLVQPGGSLRLSCAASGFTFSSYAMSWVRQAPGKGLEWVSVISETGKNIYYADSVKGRFTISRDNSKNTLYLQMNSLRAEDTAVYYCARLTHYARYYRYFDVWGQGTLVTVSS VL: DIVLTQSPATLSLSPGERATLSCRASQRLGRLYLAWYQQKPGQAPRLLIYGASSRATGVPARFSGSGSGTDFTLTISSLEPEDFATYYCQQTYDYPPTFGQGTKVEIKR | – | – | – | – | – | – | – | – | – | 1.19 nM | 1.23 nM |
| MS-Roche #3.4.H5 Fab (Fab, V domains shown) VH: QVQLVESGGGLVQPGGSLRLSCAASGFTFSSYAMSWVRQAPGKGLEWVSVISQVGAHIYYADSVKGRFTISRDNSKNTLYLQMNSLRAEDTAVYYCARLTHYARYYRYFDVWGQGTLVTVSS VL: not shown | 26.5 nM | 36 nM | 13 | 0.46 | 28 | 4 | 0.14 | 5 | 0.18 | – | – |
| MS-Roche #3.4.H17 Fab (Fab, V domains shown) VH: QVQLVESGGGLVQPGGSLRLSCAASGFTFSSYAMSWVRQAPGKGLEWVSAISEFGQFIYYADSVKGRFTISRDNSKNTLYLQMNSLRAEDTAVYYCARLTHYARYYRYFDVWGQGTLVTVSS VL: not shown | 2 nM | 4.3 nM | 12 | 0.43 | 28 | 11 | 0.39 | 5 | 0.18 | – | – |
| MS-Roche #3.4.L11 Fab (Fab, V domains shown) VH: not shown VL: DIVLTQSPATLSLSPGERATLSCRASQLVGRAYLAWYQQKPGQAPRLLIYGASSRATGVPARFSGSGSGTDFTLTISSLEPEDFATYYCQQTYDYPPTFGQGTKVEIKR | 5.3 nM | 2.6 nM | 20 | 0.65 | 31 | 5 | 0.16 | 6 | 0.19 | – | – |
| MS-Roche #3.6.H1 Fab (Fab, V domains shown) VH: QVQLVESGGGLVQPGGSLRLSCAASGFTFSSYAMSWVRQAPGKGLEWVSVISESGQYKYYADSVKGRFTISRDNSKNTLYLQMNSLRAEDTAVYYCARLTHYARYYRYFDVWGQGTLVTVSS VL: not shown | 18.9 nM | 23.1 nM | 13 | 0.57 | 23 | 5 | 0.22 | 3 | 0.13 | – | – |
| MS-Roche #3.6.H6 Fab (Fab, V domains shown) VH: QVQLVESGGGLVQPGGSLRLSCAASGFTFSSYAMSWVRQAPGKGLEWVSAISEHGTNIYYADSVKGRFTISRDNSKNTLYLQMNSLRAEDTAVYYCARLTHYARYYRYFDVWGQGTLVTVSS VL: not shown | 36 nM | 11.8 nM | 4 | 0.16 | 25 | 7 | 0.28 | 1 | 0.04 | – | – |
| MS-Roche #3.6.H2 Fab (Fab, V domains shown) VH: QVQLVESGGGLVQPGGSLRLSCAASGFTFSSYAMSWVRQAPGKGLEWVSVISERGINTYYADSVKGRFTISRDNSKNTLYLQMNSLRAEDTAVYYCARLTHYARYYRYFDVWGQGTLVTVSS VL: not shown | 19.8 nM | 54 nM | 8 | 0.42 | 19 | 3 | 0.16 | 2 | 0.11 | – | – |
